B1: TRIB3 (tribbles pseudokinase 3), purified protein (natural protein)
chain: MRATPLAAPAGSLSRKKRLELDDNLDTERPVQKRARSGPQPRLPPCLLPLSPPTAPDRATAVATASRLGPYVLLEPEEGGRAYQALHCPTGTEYTCKVYPVQEALAVLEPYARLPPHKHVARPTEVLAGTQLLYAFFTRTHGDMHSLVRSRHRIPEPEAAVLFRQMATALAHCHQHGLVLRDLKLCRFVFADRERKKLVLENLEDSCVLTGPDDSLWDKHACPAYVGPEILSSRASYSGKAADVWSLGVALFTMLAGHYPFQDSEPVLLFGKIRRGAYALPAGLSAPARCLVRCLLRREPAERLTATGILLHPWLRQDPMPLAPTRSHLWEAAQVVPDGLGLDEAREEEGDREVVLYG

Experiment [1] concerns the target JGZ-M4. The experiment in a line: SPR.
Experiment [2] has as its target JGZ-M13. The experiment can be described thus: SPR. (In SPR one partner is held on a chip, and binding of the other changes the refractive index at the surface.)
Experiment [3] deals with JGZ-M6. The experiment can be described thus: SPR.
For experiment [4], the target named is JGZ-M10. The experiment can be described thus: SPR.
Experiment [5] has as its target JGZ-M12. The experiment can be described thus: SPR.
For experiment [6], the target named is JGZ-M2. The experiment in a line: SPR.
Experiment [7] addresses JGZ-M1. The experiment can be described thus: SPR.
Experiment [8] addresses JGZ-M11. The experiment in a line: SPR.
The target of experiment [9] is JGZ-M15. The experiment can be described thus: SPR.
Experiment [10] deals with T1, SAH-JGZ4, stapled JGZ peptide (UniProt P00533, two units of nonnatural alkenyl amino acids S5 at the relative positions i and i + 4, cross-linked by ring-closing olefin metathesis). The experiment can be described thus: SPR.
In experiment [11] the target is T1, SAH-JGZ4, stapled JGZ peptide. The experiment in a line: FP.
In experiment [12] the target is SAH-JGZ2. The experiment can be described thus: SPR.
For experiment [13], the target named is T1, SAH-JGZ4, stapled JGZ peptide. The experiment in a line: SPR. The source holds these as a separate data set.
Experiment [14] addresses B1. The experiment can be described thus: SPR.

Values joined by “and” are separate entries in the source; they are usually repeats but may differ in a detail not shown here. Equal values may be shown once.

One may read the Kd as the free concentration of one partner at which half of the binding sites on the other are occupied at equilibrium, for simple one-to-one binding. For the molecule B1, the dissociation constant (Kd) in [1] is 2470 nM; in [2], 796 nM; in experiment [3], 1210 nM; in experiment [4], 337 nM; in experiment [5] it was 402 nM; in experiment [6], 424 nM. Further, the Kd in experiment [7] is 642 nM; in experiment [8], 892 nM; in experiment [9], 1160 nM; in [10], 137 nM; in experiment [11], 55.4 nM; in [12], 235 nM. Further, the Kd in [13] is 84.1 nM and 66.1 nM.

NQALLRIVKETEFK [JMA2 peptide with the Leu-to-Val substitution] yielded a Kd in [14] of 5370 nM.

NQALLRIIKETEFK [JMA2 peptide with the Leu-to-Ile substitution] showed a Kd in [14] of 1060 nM.

Source of the values: PMC7374170 (2020).
